Test results: US20220411483A1 (Chugai, published 2022)
Residue numbers refer to the chain shown, from its start.

T1: FcγRIIa R type extracellular domain, His tag (human, UniProt P12318 34-217)
T1 construct: extracellular domain; also called FcgRIIaR
T1 sequence (looked up): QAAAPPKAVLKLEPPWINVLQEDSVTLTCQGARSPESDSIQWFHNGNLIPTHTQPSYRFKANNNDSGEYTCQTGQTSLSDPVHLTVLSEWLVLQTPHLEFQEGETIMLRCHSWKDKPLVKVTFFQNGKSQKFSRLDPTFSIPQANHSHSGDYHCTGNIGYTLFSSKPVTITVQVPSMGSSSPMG

T2: FcγRIIa H type extracellular domain, His tag (human, UniProt P12318 34-217)
T2 construct: extracellular domain; also called FcgRIIaH
T2 sequence (looked up): T1 sequence (looked up) with R134H

T3: FcγRIIb extracellular domain, His tag (human, UniProt P31994 43-217)
T3 construct: extracellular domain; also called FcgRIIb
T3 sequence (looked up): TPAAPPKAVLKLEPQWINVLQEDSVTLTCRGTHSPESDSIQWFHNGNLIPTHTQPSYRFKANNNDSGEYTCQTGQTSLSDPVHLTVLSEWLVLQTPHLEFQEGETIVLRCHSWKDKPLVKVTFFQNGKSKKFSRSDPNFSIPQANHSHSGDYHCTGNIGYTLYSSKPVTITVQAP

B1: IL6R-P605/IL6R-L (antibody, human IgG1, kappa)
heavy: QVQLQESGPGLVKPSETLSLTCAVSGHSISHDHAWSWVRQPPGEGLEWIGFISYSGITNYNPSLQGRVTISRDNSKNTLYLQMNSLRAEDTAVYYCARSLARTTAMDYWGEGTLVTVSSASTKGPSVFPLAPSSKSTSGGTAALGCLVKDYFPEPVTVSWNSGALTSGVHTFPAVLQSSGLYSLSSVVTVPSSSLGTQTYICNVNHKPSNTKVDKKVEPKSCDKTHTCPPCPAPELLGGDSVFLFPPKPKDTLMISRTPEVTCVVVDVSHEDPEVKFNWYVDGVEVHNAKTKPREEQDNATYRVVSVLTVLHQDWLNGKEYKCKVSNKALPAPIEKTISKAKGQPREPQVYTLPPSRDELTKNQVSLTCLVKGFYPSDIAVEWESNGQPENNYKTTPPVLDSDGSFFLYSKLTVDKSRWQQGNVFSCSVMHEALHNHYTQKSLSLSP
light: not shown
B2: IL6R-P656/IL6R-L (antibody, human IgG1, kappa)
heavy: B1 heavy with F243M, D298E, A300S, A332H
light: not shown
B3: IL6R-P726/IL6R-L (antibody, human IgG1, kappa)
heavy: B1 heavy with G239Q, F243M, D298E, A300S, S326H, A332H
light: not shown
B4: IL6R-P655/IL6R-L (antibody, human IgG1, kappa)
heavy: B1 heavy with F243M, D298E, A300S, S326H
light: not shown
B5: IL6R-P689/IL6R-L (antibody, human IgG1, kappa)
heavy: B1 heavy with F243M, H270P, D298E, A300S, S326H
light: not shown
B6: IL6R-P660/IL6R-L (antibody, human IgG1, kappa)
heavy: B1 heavy with D298Y, S326N
light: not shown
B7: IL6R-P692/IL6R-L (antibody, human IgG1, kappa)
heavy: B1 heavy with L237F, G239Q, F243M, D298E, A300S, A332H
light: not shown
B8: IL6R-P691/IL6R-L (antibody, human IgG1, kappa)
heavy: B1 heavy with L237F, G239Q, F243M, D298E, A300S
light: not shown
B9: IL6R-P654/IL6R-L (antibody, human IgG1, kappa)
heavy: B1 heavy with F243M, D298E, A300S, S326N
light: not shown
B10: IL6R-P693/IL6R-L (antibody, human IgG1, kappa)
heavy: B1 heavy with D298E
light: not shown
B11: IL6R-P661/IL6R-L (antibody, human IgG1, kappa)
heavy: B1 heavy with D298Y, A332H
light: not shown
B12: IL6R-P657/IL6R-L (antibody, human IgG1, kappa)
heavy: B1 heavy with F243M, D298E, A300S, A332Y
light: not shown
B13: IL6R-P687/IL6R-L (antibody, human IgG1, kappa)
heavy: B1 heavy with D298Y, S326N, A332H
light: not shown
B14: IL6R-P690/IL6R-L (antibody, human IgG1, kappa)
heavy: B1 heavy with G239Q, F243M, D298E, A300S, A332H
light: not shown
B15: IL6R-P659/IL6R-L (antibody, human IgG1, kappa)
heavy: B1 heavy with G239Q, F243M, D298E, A300S
light: not shown
B16: IL6R-P653/IL6R-L (antibody, human IgG1, kappa)
heavy: B1 heavy with F243M, H270P, D298E, A300S
light: not shown
B17: IL6R-P658/IL6R-L (antibody, human IgG1, kappa)
heavy: B1 heavy with L237F, F243M, D298E, A300S
light: not shown

What follows are binders tested against T4, FcγRIa extracellular domain, His tag (human, UniProt P12314 16-292) (assay: SPR, KD ratio).
T4 construct: whole entry named; also called FcgRIa
T4 sequence (P12314 16-292): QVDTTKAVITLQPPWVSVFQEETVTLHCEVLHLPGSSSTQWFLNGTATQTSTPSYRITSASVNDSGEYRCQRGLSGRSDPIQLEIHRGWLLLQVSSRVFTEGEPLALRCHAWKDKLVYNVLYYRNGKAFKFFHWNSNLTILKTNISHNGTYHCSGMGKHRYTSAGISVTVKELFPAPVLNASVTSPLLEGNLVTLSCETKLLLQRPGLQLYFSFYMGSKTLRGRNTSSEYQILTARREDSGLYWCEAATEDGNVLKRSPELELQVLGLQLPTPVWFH

Relative FcgRIa-binding Activity	Binder
0.0384 fold of IL6R-G1d/IL6R-L	B1
0.0118 fold of IL6R-G1d/IL6R-L	B2
0.0017 fold of IL6R-G1d/IL6R-L	B3
0.0183 fold of IL6R-G1d/IL6R-L	B4
0.0118 fold of IL6R-G1d/IL6R-L	B5
0.0446 fold of IL6R-G1d/IL6R-L	B6
0.0006 fold of IL6R-G1d/IL6R-L	B7
0.0004 fold of IL6R-G1d/IL6R-L	B8
0.0206 fold of IL6R-G1d/IL6R-L	B9
0.0423 fold of IL6R-G1d/IL6R-L	B10
0.033 fold of IL6R-G1d/IL6R-L	B11
0.0194 fold of IL6R-G1d/IL6R-L	B12
0.0471 fold of IL6R-G1d/IL6R-L	B13
0.0011 fold of IL6R-G1d/IL6R-L	B14
0.0041 fold of IL6R-G1d/IL6R-L	B15
0.0183 fold of IL6R-G1d/IL6R-L	B16
0.0004 fold of IL6R-G1d/IL6R-L	B17

The binders below were run against T1, FcγRIIa R type extracellular domain, … (assay: SPR, KD ratio).

Relative FcgRIIaR-binding Activity	Binder
0.021 fold of IL6R-G1d/IL6R-L	B1
0.032 fold of IL6R-G1d/IL6R-L	B2
0.019 fold of IL6R-G1d/IL6R-L	B3
0.03 fold of IL6R-G1d/IL6R-L	B4
0.016 fold of IL6R-G1d/IL6R-L	B5
0.025 fold of IL6R-G1d/IL6R-L	B6
0.022 fold of IL6R-G1d/IL6R-L	B7
0.017 fold of IL6R-G1d/IL6R-L	B8
0.032 fold of IL6R-G1d/IL6R-L	B9
0.018 fold of IL6R-G1d/IL6R-L	B10
0.03 fold of IL6R-G1d/IL6R-L	B11
0.026 fold of IL6R-G1d/IL6R-L	B12
0.02 fold of IL6R-G1d/IL6R-L	B13
0.017 fold of IL6R-G1d/IL6R-L	B14
0.015 fold of IL6R-G1d/IL6R-L	B15
0.024 fold of IL6R-G1d/IL6R-L	B16
0.038 fold of IL6R-G1d/IL6R-L	B17

What follows are binders tested against T2, FcγRIIa H type extracellular domain, … (assay: SPR, KD ratio).

Relative FcgRIIaH-binding Activity	Binder
0.007 fold of IL6R-G1d/IL6R-L	B1
0.011 fold of IL6R-G1d/IL6R-L	B2
0.016 fold of IL6R-G1d/IL6R-L	B3
0.017 fold of IL6R-G1d/IL6R-L	B4
0.008 fold of IL6R-G1d/IL6R-L	B5
0.009 fold of IL6R-G1d/IL6R-L	B6
0.008 fold of IL6R-G1d/IL6R-L	B7
0.007 fold of IL6R-G1d/IL6R-L	B8
0.014 fold of IL6R-G1d/IL6R-L	B9
0.006 fold of IL6R-G1d/IL6R-L	B10
0.01 fold of IL6R-G1d/IL6R-L	B11
0.009 fold of IL6R-G1d/IL6R-L	B12
0.007 fold of IL6R-G1d/IL6R-L	B13
0.007 fold of IL6R-G1d/IL6R-L	B14
0.006 fold of IL6R-G1d/IL6R-L	B15
0.009 fold of IL6R-G1d/IL6R-L	B16
0.01 fold of IL6R-G1d/IL6R-L	B17

Each binder was assayed against T3, FcγRIIb extracellular domain, His tag (assay: SPR, KD ratio).

Relative FcgRIIb-binding Activity	Binder
0.977 fold of IL6R-G1d/IL6R-L	B1
2.68 fold of IL6R-G1d/IL6R-L	B2
1.25 fold of IL6R-G1d/IL6R-L	B3
1.89 fold of IL6R-G1d/IL6R-L	B4
1.09 fold of IL6R-G1d/IL6R-L	B5
0.972 fold of IL6R-G1d/IL6R-L	B6
1.89 fold of IL6R-G1d/IL6R-L	B7
1.19 fold of IL6R-G1d/IL6R-L	B8
2.02 fold of IL6R-G1d/IL6R-L	B9
0.918 fold of IL6R-G1d/IL6R-L	B10
1.28 fold of IL6R-G1d/IL6R-L	B11
1.64 fold of IL6R-G1d/IL6R-L	B12
1.01 fold of IL6R-G1d/IL6R-L	B13
1.28 fold of IL6R-G1d/IL6R-L	B14
0.807 fold of IL6R-G1d/IL6R-L	B15
1.46 fold of IL6R-G1d/IL6R-L	B16
3.81 fold of IL6R-G1d/IL6R-L	B17

What follows are binders tested against T5, FcγRIIIa V type extracellular domain, His tag (human, UniProt P08637 17-208) (assay: SPR, KD ratio).
T5 construct: extracellular domain; also called FcgRIIIaV
T5 sequence (P08637 17-208 F176V): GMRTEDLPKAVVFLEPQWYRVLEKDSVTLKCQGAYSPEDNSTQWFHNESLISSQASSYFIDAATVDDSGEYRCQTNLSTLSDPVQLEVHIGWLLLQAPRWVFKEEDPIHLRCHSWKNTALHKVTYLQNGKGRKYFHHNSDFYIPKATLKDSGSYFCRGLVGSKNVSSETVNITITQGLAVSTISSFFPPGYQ

Relative FcgRIIIaV-binding Activity	Binder
0.008 fold of IL6R-G1d/IL6R-L	B1
0.007 fold of IL6R-G1d/IL6R-L	B2
0.009 fold of IL6R-G1d/IL6R-L	B3
0.007 fold of IL6R-G1d/IL6R-L	B4
0.007 fold of IL6R-G1d/IL6R-L	B5
0.011 fold of IL6R-G1d/IL6R-L	B6
0.006 fold of IL6R-G1d/IL6R-L	B7
0.007 fold of IL6R-G1d/IL6R-L	B8
0.007 fold of IL6R-G1d/IL6R-L	B9
0.008 fold of IL6R-G1d/IL6R-L	B10
0.012 fold of IL6R-G1d/IL6R-L	B11
0.005 fold of IL6R-G1d/IL6R-L	B12
0.008 fold of IL6R-G1d/IL6R-L	B13
0.005 fold of IL6R-G1d/IL6R-L	B14
0.005 fold of IL6R-G1d/IL6R-L	B15
0.007 fold of IL6R-G1d/IL6R-L	B16
0.005 fold of IL6R-G1d/IL6R-L	B17

Each binder was assayed against T1, FcγRIIa R type extracellular domain, … (assay: SPR, bound amount per captured antibody).

Relative FcgRIIaR-binding Activity	Binder
13.5 % of IL6R-G1d/IL6R-L	B1
18.2 % of IL6R-G1d/IL6R-L	B2
12 % of IL6R-G1d/IL6R-L	B3
17.1 % of IL6R-G1d/IL6R-L	B4
10.1 % of IL6R-G1d/IL6R-L	B5
14.7 % of IL6R-G1d/IL6R-L	B6
13.7 % of IL6R-G1d/IL6R-L	B7
10.7 % of IL6R-G1d/IL6R-L	B8
18.2 % of IL6R-G1d/IL6R-L	B9
11.4 % of IL6R-G1d/IL6R-L	B10
17.5 % of IL6R-G1d/IL6R-L	B11
15.4 % of IL6R-G1d/IL6R-L	B12
12.6 % of IL6R-G1d/IL6R-L	B13
10.5 % of IL6R-G1d/IL6R-L	B14
9.1 % of IL6R-G1d/IL6R-L	B15
14.5 % of IL6R-G1d/IL6R-L	B16
20.8 % of IL6R-G1d/IL6R-L	B17

What follows are binders tested against T3, FcγRIIb extracellular domain, His tag (assay: SPR, bound amount per captured antibody).

Relative FcgRIIb-binding Activity	Binder
82 % of IL6R-G1d/IL6R-L	B1
138 % of IL6R-G1d/IL6R-L	B2
123 % of IL6R-G1d/IL6R-L	B3
127 % of IL6R-G1d/IL6R-L	B4
103 % of IL6R-G1d/IL6R-L	B5
100 % of IL6R-G1d/IL6R-L	B6
127 % of IL6R-G1d/IL6R-L	B7
104 % of IL6R-G1d/IL6R-L	B8
128 % of IL6R-G1d/IL6R-L	B9
87.9 % of IL6R-G1d/IL6R-L	B10
109 % of IL6R-G1d/IL6R-L	B11
115 % of IL6R-G1d/IL6R-L	B12
100 % of IL6R-G1d/IL6R-L	B13
102 % of IL6R-G1d/IL6R-L	B14
87 % of IL6R-G1d/IL6R-L	B15
116 % of IL6R-G1d/IL6R-L	B16
149 % of IL6R-G1d/IL6R-L	B17
